Experimental data reported in patent publication US20220119825A1, “SCALABLE PEPTIDE-GPCR INT[…] SYSTEMS” (THE TRUSTEES OF COLUMBIA UNIVERSITY IN THE CITY OF NEW YORK, priority 2019, published 2022).

Experiments:
Experiment in all cases: cell-based or functional assay
[1] = target: T1, Cg.Ste2, Ste2-like mating GPCR of Candida glabrata (Candida glabrata)
T1 chain: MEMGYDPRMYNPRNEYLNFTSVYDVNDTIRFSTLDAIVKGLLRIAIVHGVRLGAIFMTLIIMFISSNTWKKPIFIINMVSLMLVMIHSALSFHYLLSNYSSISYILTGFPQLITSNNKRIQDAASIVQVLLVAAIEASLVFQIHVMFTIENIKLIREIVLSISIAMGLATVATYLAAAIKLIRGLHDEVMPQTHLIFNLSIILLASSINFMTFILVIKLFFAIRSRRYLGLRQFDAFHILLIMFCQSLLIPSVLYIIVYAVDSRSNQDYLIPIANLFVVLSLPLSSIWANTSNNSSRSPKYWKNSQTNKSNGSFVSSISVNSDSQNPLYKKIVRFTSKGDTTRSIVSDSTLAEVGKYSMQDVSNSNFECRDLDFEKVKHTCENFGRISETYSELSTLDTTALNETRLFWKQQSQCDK

[2] = target: T2, Vp2.Ste2, Ste2-like mating GPCR of Vanderwaltozyma polyspora2 (Vanderwaltozyma polyspora)
T2 chain: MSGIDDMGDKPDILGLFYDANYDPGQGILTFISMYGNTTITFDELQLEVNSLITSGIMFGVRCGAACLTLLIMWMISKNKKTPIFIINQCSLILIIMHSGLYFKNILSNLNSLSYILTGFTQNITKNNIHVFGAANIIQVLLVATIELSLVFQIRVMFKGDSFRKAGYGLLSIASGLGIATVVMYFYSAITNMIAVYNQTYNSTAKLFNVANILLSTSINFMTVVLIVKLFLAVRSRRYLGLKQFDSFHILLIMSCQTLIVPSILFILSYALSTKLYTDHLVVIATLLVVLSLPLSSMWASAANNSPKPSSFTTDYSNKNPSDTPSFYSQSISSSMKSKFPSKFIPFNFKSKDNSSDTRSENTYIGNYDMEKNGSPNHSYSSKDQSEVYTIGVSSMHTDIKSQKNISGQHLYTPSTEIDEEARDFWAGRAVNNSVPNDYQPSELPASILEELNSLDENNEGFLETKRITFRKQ

[3] = target: T3, Cau.Ste2, Ste2-like mating GPCR of Candida auris (Candida auris)
T3 chain: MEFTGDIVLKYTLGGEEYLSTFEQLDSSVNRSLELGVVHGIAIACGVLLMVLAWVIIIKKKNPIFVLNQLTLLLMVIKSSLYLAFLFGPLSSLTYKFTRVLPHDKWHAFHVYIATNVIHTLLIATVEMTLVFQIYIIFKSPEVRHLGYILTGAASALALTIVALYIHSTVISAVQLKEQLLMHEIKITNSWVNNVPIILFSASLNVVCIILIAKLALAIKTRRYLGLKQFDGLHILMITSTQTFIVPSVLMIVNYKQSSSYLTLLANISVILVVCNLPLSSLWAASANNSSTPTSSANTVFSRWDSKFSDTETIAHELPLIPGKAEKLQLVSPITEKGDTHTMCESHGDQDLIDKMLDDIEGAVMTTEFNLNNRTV

[4] = target: T4, Zr.Ste2, Ste2-like mating GPCR of Zygosaccharomyces rouxii (Zygosaccharomyces rouxii)
T4 chain: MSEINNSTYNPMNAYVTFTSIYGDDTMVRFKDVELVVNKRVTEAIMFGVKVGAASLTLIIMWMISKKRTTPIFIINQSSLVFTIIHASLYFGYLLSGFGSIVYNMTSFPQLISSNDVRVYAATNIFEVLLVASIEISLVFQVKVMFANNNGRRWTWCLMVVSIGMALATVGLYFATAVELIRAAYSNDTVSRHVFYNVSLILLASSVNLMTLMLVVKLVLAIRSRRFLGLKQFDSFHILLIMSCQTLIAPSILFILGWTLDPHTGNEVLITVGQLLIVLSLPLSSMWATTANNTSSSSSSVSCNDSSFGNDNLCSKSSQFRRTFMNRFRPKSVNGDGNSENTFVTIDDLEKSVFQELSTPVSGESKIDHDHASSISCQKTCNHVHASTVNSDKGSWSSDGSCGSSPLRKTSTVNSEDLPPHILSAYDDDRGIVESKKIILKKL

[5] = target: T5, Ca.Ste2, Ste2-like mating GPCR of Candida albicans (Candida albicans)
T5 chain: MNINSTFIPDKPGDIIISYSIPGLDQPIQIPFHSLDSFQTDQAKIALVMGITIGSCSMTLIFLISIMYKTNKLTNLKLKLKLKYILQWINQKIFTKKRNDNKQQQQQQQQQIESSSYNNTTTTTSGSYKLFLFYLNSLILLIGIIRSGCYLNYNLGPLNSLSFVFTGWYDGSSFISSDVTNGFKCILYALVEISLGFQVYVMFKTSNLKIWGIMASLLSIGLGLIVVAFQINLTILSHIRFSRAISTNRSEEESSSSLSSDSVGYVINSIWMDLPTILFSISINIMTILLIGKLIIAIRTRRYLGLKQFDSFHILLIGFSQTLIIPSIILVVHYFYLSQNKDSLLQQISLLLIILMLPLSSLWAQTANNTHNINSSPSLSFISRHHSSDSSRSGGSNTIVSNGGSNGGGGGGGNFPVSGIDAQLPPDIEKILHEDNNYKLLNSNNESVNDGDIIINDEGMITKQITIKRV

[6] = target: T6, Cp.Ste2, Ste2-like mating GPCR of Candida parapsilosis (Candida parapsilosis)
T6 chain: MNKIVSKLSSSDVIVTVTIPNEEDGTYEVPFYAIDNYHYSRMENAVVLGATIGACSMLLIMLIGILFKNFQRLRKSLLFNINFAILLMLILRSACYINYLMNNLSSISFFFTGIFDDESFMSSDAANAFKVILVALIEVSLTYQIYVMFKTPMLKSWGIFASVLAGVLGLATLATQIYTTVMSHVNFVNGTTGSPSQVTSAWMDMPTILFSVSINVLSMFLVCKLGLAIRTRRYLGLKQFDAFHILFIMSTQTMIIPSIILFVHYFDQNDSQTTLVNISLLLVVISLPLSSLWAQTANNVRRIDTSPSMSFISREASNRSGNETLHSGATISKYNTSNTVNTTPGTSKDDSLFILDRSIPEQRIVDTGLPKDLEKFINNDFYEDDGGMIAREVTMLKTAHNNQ

[7] = target: T7, Cgu.Ste2, Ste2-like mating GPCR of Candida (Pichia) guilliermondii (Candida (Pichia) guilliermondii)
T7 chain: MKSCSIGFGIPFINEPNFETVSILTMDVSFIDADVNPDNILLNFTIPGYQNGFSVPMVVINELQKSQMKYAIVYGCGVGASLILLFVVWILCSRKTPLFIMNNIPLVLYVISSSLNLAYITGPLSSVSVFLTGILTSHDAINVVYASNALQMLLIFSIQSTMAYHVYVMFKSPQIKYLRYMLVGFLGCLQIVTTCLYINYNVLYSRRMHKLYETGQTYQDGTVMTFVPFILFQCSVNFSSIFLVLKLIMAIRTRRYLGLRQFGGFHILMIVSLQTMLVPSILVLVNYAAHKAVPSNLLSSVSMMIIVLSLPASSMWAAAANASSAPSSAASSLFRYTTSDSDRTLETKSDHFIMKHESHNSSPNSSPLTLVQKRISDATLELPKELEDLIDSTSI

[8] = target: T8, Cl.Ste2, Ste2-like mating GPCR of Candida (Clavispora) lusitaniae (Candida (Clavispora) lusitaniae)
T8 chain: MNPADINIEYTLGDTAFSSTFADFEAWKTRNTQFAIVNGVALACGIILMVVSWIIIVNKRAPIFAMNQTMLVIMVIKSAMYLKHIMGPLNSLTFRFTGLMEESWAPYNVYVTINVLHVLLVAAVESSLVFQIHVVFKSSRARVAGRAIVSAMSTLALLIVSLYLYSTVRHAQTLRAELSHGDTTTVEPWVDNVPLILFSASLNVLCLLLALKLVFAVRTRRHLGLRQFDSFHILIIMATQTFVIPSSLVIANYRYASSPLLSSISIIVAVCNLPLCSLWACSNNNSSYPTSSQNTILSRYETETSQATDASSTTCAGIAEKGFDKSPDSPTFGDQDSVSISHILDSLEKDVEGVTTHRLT

[9] = target: T9, Zb.Ste2, Ste2-like mating GPCR of Zygosaccharomyces bailii (Zygosaccharomyces bailii)
T9 chain: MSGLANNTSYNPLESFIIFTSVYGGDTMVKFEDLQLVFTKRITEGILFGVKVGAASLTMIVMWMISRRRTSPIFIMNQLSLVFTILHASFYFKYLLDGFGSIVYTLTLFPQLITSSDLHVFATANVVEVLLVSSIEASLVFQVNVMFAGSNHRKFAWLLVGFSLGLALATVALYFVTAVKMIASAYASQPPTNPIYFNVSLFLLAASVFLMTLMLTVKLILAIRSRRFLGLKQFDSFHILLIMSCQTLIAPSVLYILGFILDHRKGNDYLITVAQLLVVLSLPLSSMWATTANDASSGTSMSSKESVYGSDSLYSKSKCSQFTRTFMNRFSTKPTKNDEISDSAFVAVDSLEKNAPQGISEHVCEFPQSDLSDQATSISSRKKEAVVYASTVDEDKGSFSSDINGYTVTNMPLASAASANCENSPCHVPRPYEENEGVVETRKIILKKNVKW

[10] = target: T10, Cn.Ste2, Ste2-like mating GPCR of Candida tenuis (Candida tenuis)
T10 chain: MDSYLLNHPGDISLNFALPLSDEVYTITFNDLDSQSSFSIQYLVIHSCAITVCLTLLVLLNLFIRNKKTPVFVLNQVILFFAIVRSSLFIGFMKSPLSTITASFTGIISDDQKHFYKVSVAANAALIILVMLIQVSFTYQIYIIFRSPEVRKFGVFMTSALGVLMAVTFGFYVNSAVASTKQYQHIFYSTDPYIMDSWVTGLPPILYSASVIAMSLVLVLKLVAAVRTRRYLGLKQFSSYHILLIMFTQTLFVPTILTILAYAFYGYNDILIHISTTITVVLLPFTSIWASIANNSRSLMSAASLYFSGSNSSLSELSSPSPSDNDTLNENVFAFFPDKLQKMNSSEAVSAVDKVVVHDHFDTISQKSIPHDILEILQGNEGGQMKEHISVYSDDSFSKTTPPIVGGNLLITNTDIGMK

WHWVRLRKGQGLF [Cg peptide ligand #1 WHWVRLRKGQGLF]
Bttm (FUS1p-RFP reporter) [1]: 30.5 fluorescence/A600 (not printed)
EC50 (FUS1p-RFP reporter) [1]: -5.9 log10 M (not printed)
Fold Change (FUS1p-RFP reporter) [1]: 7 fold
Span (FUS1p-RFP reporter) [1]: 183 fluorescence/A600 (not printed)
Top (FUS1p-RFP reporter) [1]: 214 fluorescence/A600 (not printed)

WHWLRLRYGEPIY [Vp2 peptide ligand #1 WHWLRLRYGEPIY]
Bttm (FUS1p-RFP reporter) [2]: 28 fluorescence/A600 (not printed)
EC50 (FUS1p-RFP reporter) [2]: -7.7 log10 M (not printed)
Fold Change (FUS1p-RFP reporter) [2]: 7.7 fold
Span (FUS1p-RFP reporter) [2]: 187 fluorescence/A600 (not printed)
Top (FUS1p-RFP reporter) [2]: 215 fluorescence/A600 (not printed)

KWGWLRFFPGEPFV [Cau peptide ligand #1 KWGWLRFFPGEPFV]
Bttm (FUS1p-RFP reporter) [3]: 50.6 fluorescence/A600 (not printed)
EC50 (FUS1p-RFP reporter) [3]: -8.1 log10 M (not printed)
Fold Change (FUS1p-RFP reporter) [3]: 6.7 fold
Span (FUS1p-RFP reporter) [3]: 286 fluorescence/A600 (not printed)
Top (FUS1p-RFP reporter) [3]: 337 fluorescence/A600 (not printed)

HFIELDPGQPMF [Zr peptide ligand #1 (Table 3: …)]
Bttm (FUS1p-RFP reporter) [4]: 57.2 fluorescence/A600 (not printed)
EC50 (FUS1p-RFP reporter) [4]: -7.4 log10 M (not printed)
Fold Change (FUS1p-RFP reporter) [4]: 1.9 fold
Span (FUS1p-RFP reporter) [4]: 52.7 fluorescence/A600 (not printed)
Top (FUS1p-RFP reporter) [4]: 110 fluorescence/A600 (not printed)

GFRLTNFGYFEPG [Ca peptide ligand #1 GFRLTNFGYFEPG]
Bttm (FUS1p-RFP reporter) [5]: 38.9 fluorescence/A600 (not printed)
EC50 (FUS1p-RFP reporter) [5]: -7.7 log10 M (not printed)
Fold Change (FUS1p-RFP reporter) [5]: 7 fold
Span (FUS1p-RFP reporter) [5]: 233 fluorescence/A600 (not printed)
Top (FUS1p-RFP reporter) [5]: 272 fluorescence/A600 (not printed)

KPHWTTYGYYEPQ [Cp peptide ligand #1 KPHWTTYGYYEPQ]
Bttm (FUS1p-RFP reporter) [6]: 36.2 fluorescence/A600 (not printed)
EC50 (FUS1p-RFP reporter) [6]: -8.5 log10 M (not printed)
Fold Change (FUS1p-RFP reporter) [6]: 7 fold
Span (FUS1p-RFP reporter) [6]: 218 fluorescence/A600 (not printed)
Top (FUS1p-RFP reporter) [6]: 254 fluorescence/A600 (not printed)

KKNSRFLTYWFFQPIM [Cgu peptide ligand #1 KKNSRFLTYWFFQPIM]
Bttm (FUS1p-RFP reporter) [7]: 41.2 fluorescence/A600 (not printed)
EC50 (FUS1p-RFP reporter) [7]: -7.4 log10 M (not printed)
Fold Change (FUS1p-RFP reporter) [7]: 5.1 fold
Span (FUS1p-RFP reporter) [7]: 170 fluorescence/A600 (not printed)
Top (FUS1p-RFP reporter) [7]: 212 fluorescence/A600 (not printed)

KWKWIKFRNTDVIG [Cl peptide ligand #1 KWKWIKFRNTDVIG]
Bttm (FUS1p-RFP reporter) [8]: 39.8 fluorescence/A600 (not printed)
EC50 (FUS1p-RFP reporter) [8]: -7.5 log10 M (not printed)
Fold Change (FUS1p-RFP reporter) [8]: 1.4 fold
Span (FUS1p-RFP reporter) [8]: 186 fluorescence/A600 (not printed)
Top (FUS1p-RFP reporter) [8]: 226 fluorescence/A600 (not printed)

HLVRLSPGAAMF [Zb peptide ligand #1 HLVRLSPGAAMF]
Bttm (FUS1p-RFP reporter) [9]: 39.1 fluorescence/A600 (not printed)
EC50 (FUS1p-RFP reporter) [9]: -5.8 log10 M (not printed)
Fold Change (FUS1p-RFP reporter) [9]: 7.5 fold
Span (FUS1p-RFP reporter) [9]: 253 fluorescence/A600 (not printed)
Top (FUS1p-RFP reporter) [9]: 292 fluorescence/A600 (not printed)

FSWNYRLKWQPIS [Cn peptide ligand #1 FSWNYRLKWQPIS]
Bttm (FUS1p-RFP reporter) [10]: 29.7 fluorescence/A600 (not printed)
EC50 (FUS1p-RFP reporter) [10]: -7.4 log10 M (not printed)
Fold Change (FUS1p-RFP reporter) [10]: 5.1 fold
Span (FUS1p-RFP reporter) [10]: 122 fluorescence/A600 (not printed)
Top (FUS1p-RFP reporter) [10]: 152 fluorescence/A600 (not printed)
